Test results as given in patent US6375944B1, “Methods and compositions for enhancing the immunostimulatory effect of interleukin-12” (The Wistar Institute of Anatomy and Biology, priority 1998, dated 2002).
Where two headings read alike, the source gives them in different places.

Experiments:
allogeneic DTH responses = assay: Delayed type hypersensitivity (DTH) assessment, footpad swelling after alloimmunization with HKB cells; format: in vivo, mice
Method: A. C57BL/6 (H-2^b) mice were vaccinated with irradiated allogeneic HKB (H-2^a) cells suspended in PBS at 10^7 trypan blue-excluding cells/ml. Cells were irradiated with 6000 rads from a ^137Cs source, and mice were vaccinated with 10^6 cells s.c. (day 0). Mice were given rmIL-12 (Genetics Institute, Andover, Mass.) by intraperitoneal injection (ip) with 500 ng/day on days 0-4 and 7-11 (10 injections). Control mice received phosphate buffered saline (PBS) injections. The vaccinated mice received 1 mg of neutralizing anti-IFNγ (XMG6) and/or anti-TNFα (XT22) monoclonal antibodies (mAbs) on days −1, 3 and 7. Mice were subsequently assayed for delayed type hypersensitivity (DTH) and for mitogen and alloantigen stimulation of splenocytes as described below.
The DTH assessment was performed as follows: For assessment of allogeneic DTH responses, mice were injected with 50 μl PBS containing 10^6 irradiated SCK cells in the right footpad and with 50 μl PBS in the left footpad. Footpad thickness measurements were taken just before injection and 24 hours later using a Starrett pocket gauge (Athol, Mass.). Data are presented as the difference in footpad swelling induced by SCK cells and by PBS.
C57BL/6 mice genetically deficient for IFNγ (IFNγ^−/−) and wild-type C57BL/6 mice were vaccinated with 10^6 irradiated HKB cells and given 500 ng rmIL-12 or phosphate buffered saline (PBS) on days 0-4 and 7-11 or left unvaccinated. They were challenged with 10^6 irradiated SCK cells in the right foot, with PBS control injection in the left foot on day 12. The DTH responses were measured as described above in Part A.
C. To examine the role of TNFα, SV129×C57BL/6 mice deficient for both p55 and p75 TNF receptors (TNFR^−/− mice) and control mice were vaccinated with 10^6 irradiated HKB cells and given 500 ng IL-12 or PBS on days 0-4 and 7-11. DTH assessment was performed on day 12, as described above in Part A.
Footpad injections for DTH assessment were performed on day 12 as described above in the DTH assay. Swelling 24 hours later is presented as the mean (+S.E.) from 3 mice in each treatment group in FIG. 4A.

SCK cells [1] = details: cited from earlier work
SCK cells [2] = details: cited from earlier work; remark: listed apart in the source

B1: rmIL-12: recombinant murine Interleukin-12, heterodimeric cytokine, from Genetics Institute (protein, UniProt P43431 23-215; P43432 23-335, looked up)
Interleukin-12 subunit alpha: RVIPVSGPARCLSQSRNLLKTTDDMVKTAREKLKHYSCTAEDIDHEDITRDQTSTLKTCLPLELHKNESCLATRETSSTTRGSCLPPQKTSLMMTLCLGSIYEDLKMYQTEFQAINAALQNHNHQQIILDKGMLVAIDELMQSLNHNGETLRQKPPVGEADPYRVKMKLCILLHAFSTRVVTINRVMGYLSSA
Interleukin-12 subunit beta: MWELEKDVYVVEVDWTPDAPGETVNLTCDTPEEDDITWTSDQRHGVIGSGKTLTITVKEFLDAGQYTCHKGGETLSHSHLLLHKKENGIWSTEILKNFKNKTFLKCEAPNYSGRFTCSWLVQRNMDLKFNIKSSSSSPDSRAVTCGMASLSAEKVTLDQRDYEKYSVSCQEDVTCPTAEETLPIELALEARQQNKYENYSTSFFIRDIIKPDPPKNLQMKPLKNSQVEVSWEYPDSWSTPHSYFSLKFFVRIQRKKEKMKETEEGCNQKGAFLVEKTSTEVQCKGGNVCVQAQDRYYNSSCSKWACVPCRVRS
- DTH responses (allogeneic DTH responses; IFNγR1−/− C57BL/6×SV129 mice and controls vaccinated with HKB cells, data not shown): suppressed DTH responses in control but not IFNγR1^−/− mice
- DTH responses (allogeneic DTH responses; IFNγ−/− C57BL/6 mice vaccinated with HKB cells, rmIL-12 500 ng days 0-4 and 7-11): had no suppressive effect
- DTH responses (allogeneic DTH responses; TNFR−/− (p55 and p75) SV129×C57BL/6 mice vaccinated with HKB cells, 500 ng days 0-4 and 7-11): depressed DTH responses like wild-type
- DTH responses (allogeneic DTH responses; iNOS−/− C57BL/6 mice vaccinated with HKB cells, course of rmIL-12): at least as great as those of PBS-treated iNOS^−/− and wild-type mice
- DTH responses (allogeneic DTH responses; wild-type C57BL/6 mice vaccinated with irradiated HKB cells, rmIL-12 500 ng/day ip days 0-4 and 7-11, challenge day 12): suppressed DTH responses to background levels
- Effect on SCK.GM vaccine protection (SCK cells [1]; four weeks after vaccination): had no deleterious effect
- Effect on SCK.GM vaccine protection (SCK cells [1]; two weeks after vaccination): abrogated protection
- Effect on protection by irradiated SCK cell vaccination (SCK cells [2]; challenged 14 days after vaccination): did not improve protection
- Effect on protection by irradiated SCK cell vaccination (SCK cells [2]; challenged at 28 days): did improve protection
